The chains are these.
B1: HDV Ribozyme (parent)
chain: GGCCGGCAUGGUCCCAGCCUCCUCGCUGGCGCCGGCUGGGCAACAUUCCGAGGGGACCGUCCCCUCGGUAAUGGCGAAUGGGACCCA

This series covers variants of B1. Put plainly: self-cleavage, relative activity (ratio to wild type); higher = more cleavage; co-transcriptional.
Take GGCCGGCAUGGUCCCAGCAUCCUCGCUGGCGCCGGCUGGGCAACAUUCCGAGGGGACCGACCCCUCGGUAAUGGCGAAUGGGACCCA [C19A U60A]: the self-cleavage amounted to 0.141. As to GGCCGGCAUGGUCCCAGCAUCCUCGCUGGCGCCGGCUGGGCAACAUUCCGAGGGGACCGGCCCCUCGGUAAUGGCGAAUGGGACCCA [C19A U60G], the self-cleavage stood at 0.0361. Under GGCCGGCAUGGUCCCAGCAUCCUCGCUGGCGCCGGCUGGGCAACAUUCCGAGGGGACCGCCCCCUCGGUAAUGGCGAAUGGGACCCA [C19A U60C] stands 0.107; under GGCCGGCAUGGUCCCAGCGUCCUCGCUGGCGCCGGCUGGGCAACAUUCCGAGGGGGCCGUCCCCUCGGUAAUGGCGAAUGGGACCCA [C19G A56G], 0.0639. Under GGCCGGCAUGGUCCCAGCACCCUCGCUGGCGCCGGCUGGGCAACAUUCCGAGGGGACCGUCCCCUCGGUAAUGGCGAAUGGGACCCA [C19A U20C] stands 0; under GGCCGGCAUGGUCCCAGCAUCCUCGCUGGCGCCGGCUUGGCAACAUUCCGAGGGGACCGUCCCCUCGGUAAUGGCGAAUGGGACCCA [C19A G38U], 0.0346; under GGCCGGCAUGGUCCCAGCGUCCUCGCUGGCGCCGGCUGGGCAACUUUCCGAGGGGACCGUCCCCUCGGUAAUGGCGAAUGGGACCCA [C19G A45U], 0.0396. Take GGCCGGCAUGGUCCCAGCGUCCUCGCUGGCGCCGGCUGGGCAACCUUCCGAGGGGACCGUCCCCUCGGUAAUGGCGAAUGGGACCCA [C19G A45C]: the self-cleavage is 0.0583. With GGCCGGCAUGGUCCCAGCGUCCUCGCUGGCGCCGGCUGGGCAACAUUCCGAGGGGACCGUCCCCUCGGUAAUGGCGAAUGGGACCCA [C19G], the self-cleavage amounted to 0.0688. On to GGCCGGCAUGGUCCCAGCAUCCUCGCUGGCGCCGGCUGGUCAACAUUCCGAGGGGACCGUCCCCUCGGUAAUGGCGAAUGGGACCCA [C19A G40U], for which the self-cleavage came out at 0.0437. The value for GGCCGGCAUGGUCCCAGCAUCCUCGCUGGCGCCGGCUGGCCAACAUUCCGAGGGGACCGUCCCCUCGGUAAUGGCGAAUGGGACCCA [C19A G40C] was 0.0587; that for GGCCGGCAUGGUCCCAGCAUCCUCGCUGGCGCCGGCUGGGCAACAUUCCGAGGGGACCGUCCCCUCGGUAAUGUCGAAUGGGACCCA [C19A G74U] was 0.101; that for GGCCGGCAUGGUCCCAGCAUCCUCGCUGGCGCCGGCUGGGCAACAUUCCGAGGGGACCGUCCCCUCGGUAAUGCCGAAUGGGACCCA [C19A G74C] was 0.125.

As for GGCCGGCAUGGUCCCAGCAUCCUCGCUGGCGCCGGCUGGGCAACAUUCCGAGGGGACCGUCCCCUCGGUAAGGGCGAAUGGGACCCA [C19A U72G], the self-cleavage was 0.095. The value for GGCCGGCAUGGUCCCAGCAUCCUCGCUGGCGCCGGCUGGGCAACAUUCCGAGGGGACCGUCCCCUCGGUAACGGCGAAUGGGACCCA [C19A U72C] was 0.0978; that for GGCCGGCAUGGUCCCAGCAUCCACGCUGGCGCCGGCUGGGCAACAUUCCGAGGGGACCGUCCCCUCGGUAAUGGCGAAUGGGACCCA [C19A U23A] was 0.0302. Under GGCCGGCAUGGUCCCAGCAUCCUCGCUGGCGCCGGCUGGGCAACAUUCCGAGGGGACCGUCCCCUCGGUAAUGGCGAAUGGGACUCA [C19A C85U] stands 0.166. Consider GGCCGGCAUGGUCCCAGCAUCCUCCCUGGCGCCGGCUGGGCAACAUUCCGAGGGGACCGUCCCCUCGGUAAUGGCGAAUGGGACCCA [C19A G25C], for which the self-cleavage came out at 0.0386. Regarding GGCCGGCAUGGUCCCAGCAUCCUCGCUGGCGCCGGCUGGGCAACAUUCCGAGGGGACCGUCCCCUCGGUAAUGGCGAAUGGGACCAA [C19A C86A], the self-cleavage was determined as 0.273. Turning to GGCCGGCAUGGUCCCAGCAUCCUCGCUGGCGCCGGCUGGGCAACAUUCCGAGGGGACCGUCCCCUCGGUAAUGGCGAAUGGGACCUA [C19A C86U], the self-cleavage came out at 0.0674. Under GGCCGGCAUGGUCCCAGCAUCCUCGCUGGCGCCGGCUGGGCAACAUUCCGAGGGGACCGUCCCCUCGGUAAUGGCGAAUGGGACCGA [C19A C86G] stands 0.0548. The value for GGCCGGCAUGGUCCCAGCAUCCUCGCUGGCGCCGGCUGGGCAACAUUCCGAGGGGACCCUCCCCUCGGUAAUGGCGAAUGGGACCCA [C19A G59C] was 0.04; that for GGCCGGCAUGGUCCCAGCAUCCUCGCUGGCGCCGGCUGGGCAACAUUCCGAGCGGACCGUCCCCUCGGUAAUGGCGAAUGGGACCCA [C19A G53C] was 0.23. For GGCCGGCAUGGUCCCAGCAUCCUCGCUGGCGCCGGCUGGGCAACAUUCCGAGGGGACCGUCCUCUCGGUAAUGGCGAAUGGGACCCA [C19A C63U], the self-cleavage was found to be 0.1. Under GGCCGGCAUGGUCCCAGCAUCCUCGCUGGCGCCGGCUGGGCAACAUUCCGAGGGGACCGUCCGCUCGGUAAUGGCGAAUGGGACCCA [C19A C63G] stands 0.256. Under GGCCGGCAUGGUCCCAGCAUCCUCGCUGGCGCCGGCAGGGCAACAUUCCGAGGGGACCGUCCCCUCGGUAAUGGCGAAUGGGACCCA [C19A U37A] stands 0.0519; under GGCCGGCAUGGUCCCAGCAUCCUCGCUGGCGCCGGCGGGGCAACAUUCCGAGGGGACCGUCCCCUCGGUAAUGGCGAAUGGGACCCA [C19A U37G], 0.151.

For the variant GGCCGGCAUGGUCCCAGCAUCCUCGCUGGCGCCGGCUGGGCAACAUUCCGAGGGGACCGUCCCCUGGGUAAUGGCGAAUGGGACCCA [C19A C66G], the self-cleavage came out at 0.115. As to GGCCGGCAUGGUCCCAGCAUCCUCGCUGGCGCCGGCUGGGCAACAUUCCGAGGGGACCGUCCCCUAGGUAAUGGCGAAUGGGACCCA [C19A C66A], the self-cleavage was 0.211. Under GGCCGGCAUGGUCCCAGCAUCCUCGCUGGCGCCGGCUGGGCAACAUUCCGAGGGGACCGUCCCCUCGGUAAUCGCGAAUGGGACCCA [C19A G73C] stands 0.058.

Regarding GGCCGGCAUGGUCCCAGCGUCCUCGCUGGCGCCGGCUGGGCCACAUUCCGAGGGGACCGUCCCCUCGGUAAUGGCGAAUGGGACCCA [C19G A42C], the self-cleavage turned out to be 0.0978. Under GGCCGGCAUGGUCCCAGCGUCCUCGCUGGCGCCGGCUGGGCUACAUUCCGAGGGGACCGUCCCCUCGGUAAUGGCGAAUGGGACCCA [C19G A42U] stands 0.
